The target in this assay is tr10b_human TNFRSF10B (UniProt O14763).

On to “Ras-related C3 botulinum toxin substrate 1 (Homo sapiens) (from UniProt P63000) T17N”, for which the “effect of a mutation on the interaction” value is reported as “decreasing interaction strength”.

The values above are taken from IntAct's records for PubMed 25843002.
